Measured values reported in the supplement of paper PMC10567573.

B1: ESR2 (parent)
chain: KSCQACRLRKCYEVGMVKCGSRRE
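Also: lentivirally expressed fusions sorted by FACS into six bins by GFP to DsRed ratio, PSI derived from sequencing read proportions per bin multiplied by bin number.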

Variants of: B1
Test: protein stability index of a GFP-peptide fusion (GPS, HEK-293T) (PSI 1-6); higher = more stable
Conditions: c terminus: a fixed tail appended
For KSCQACRLRKCYEVGMVKCNSRRE, the protein stability index was 2.12. Variant KSCQACRLRKCYEVGMVKCKSRRE has a protein stability index of 2.41. In the case of KSCQACRLRKCYEVGMVKCYSRRE, the protein stability index is reported as 2.15. Work on KSCQACRLRSCYEVGMVKCGSRRE yielded a protein stability index of 2.69. With KSCQACRLRLCYEVGMVKCGSRRE the protein stability index was 2.24. Variant KSCQACRLRDCYEVGMVKCGSRRE has a protein stability index of 1.49. Variant KSCQACRLRGCYEVGMVKCGSRRE has a protein stability index of 1.78. KSCQACRLRMCYEVGMVKCGSRRE showed a protein stability index of 1.48. In the case of KSCQACRLRHCYEVGMVKCGSRRE, the protein stability index is reported as 2.16. KSCQACRLRVCYEVGMVKCGSRRE showed a protein stability index of 1.89. KSCQACRLYKCYEVGMVKCGSRRE gave a protein stability index of 2.38. KSCQACRLIKCYEVGMVKCGSRRE gave a protein stability index of 1.82. In the case of KSCQACRLDKCYEVGMVKCGSRRE, the protein stability index is reported as 1.75. With KSCQACRLVKCYEVGMVKCGSRRE the protein stability index was 2.13. With KSCQACRLEKCYEVGMVKCGSRRE the protein stability index was 2.03. KSCQACRLPKCYEVGMVKCGSRRE showed a protein stability index of 2.35. Variant KSQQACRLRKCYEVGMVKCGSRRE has a protein stability index of 2.94. KSYQACRLRKCYEVGMVKCGSRRE gave a protein stability index of 2.19. For KSLQACRLRKCYEVGMVKCGSRRE, the protein stability index was 2.57. Variant KSTQACRLRKCYEVGMVKCGSRRE has a protein stability index of 2.57. Variant KSHQACRLRKCYEVGMVKCGSRRE has a protein stability index of 2.65. In the case of KSDQACRLRKCYEVGMVKCGSRRE, the protein stability index is reported as 2.69. Variant KSPQACRLRKCYEVGMVKCGSRRE has a protein stability index of 2.92. In the case of KSVQACRLRKCYEVGMVKCGSRRE, the protein stability index is reported as 2.54. KSFQACRLRKCYEVGMVKCGSRRE showed a protein stability index of 2.2. In the case of KSMQACRLRKCYEVGMVKCGSRRE, the protein stability index is reported as 2.48. Variant KSCQACRLRKCYEVGMPKCGSRRE has a protein stability index of 1.82. For KSCQACRLRKCYEVGMMKCGSRRE, the protein stability index was 2.37. Work on KSCQACRLRKCYEVGMQKCGSRRE yielded a protein stability index of 2.1. In the case of KSCQACRLRKCYEVGMIKCGSRRE, the protein stability index is reported as 2.21. In the case of KSCQACRLRKCYEVGMYKCGSRRE, the protein stability index is reported as 1.78. For KSCQACRLRKCYEVGMDKCGSRRE, the protein stability index was 1.6. In the case of KSCQACRLRKCYEVGMSKCGSRRE, the protein stability index is reported as 2.16. Variant KSCQACRLRKCYEVGMRKCGSRRE has a protein stability index of 1.82. KSCQACRLRKCYEVGMVKCGSRYE gave a protein stability index of 2.09. KSCQACRLRKCYEVGMVKCGSRIE showed a protein stability index of 2.43. Work on KSCQACRLRKCYEVGMVKCGSRGE yielded a protein stability index of 1.79. KSCQACRLRKCYEVGMVKCGSRFE gave a protein stability index of 2.51. With KSCQACRLRKCYEVGMVKCGSRVE the protein stability index was 2.41. For KSCQACRLRKCYEVGMVKCGSRAE, the protein stability index was 1.61. For KSCQACRLRKCYEVGMVKCGSRHE, the protein stability index was 1.96. Work on KSCQACRLRKCYEVGMVKCGSRPE yielded a protein stability index of 2.2. KSCQACRLRKCYEVGMVKCGSRKE showed a protein stability index of 1.96. Variant KSCQACRLRKCYEVGMVKYGSRRE has a protein stability index of 1.43. KSCQACRLRKCYEVGMVKEGSRRE showed a protein stability index of 2.43. KSCQACRLRKCYEVGMVKKGSRRE gave a protein stability index of 1.76. KSCQACRLRKCYEVGMVKQGSRRE gave a protein stability index of 1.53. With KSCQACRLRKCYEVGMVKGGSRRE the protein stability index was 2.11. KSCQACRLRKCYEVGMVKSGSRRE gave a protein stability index of 1.61. For KSCQACRLRKCYEVGMVKMGSRRE, the protein stability index was 1.9. KSCQACRLRKCYEVGMVKLGSRRE gave a protein stability index of 1.89. KSCQACRLRKCYEVGMVKRGSRRE showed a protein stability index of 2.52. Work on KSCQACRLRKCYEVGMVKNGSRRE yielded a protein stability index of 2.04. Work on KSCQACRLRKCYEWGMVKCGSRRE yielded a protein stability index of 1.92. Variant KSCQACRLRKCYEGGMVKCGSRRE has a protein stability index of 1.94. KSCQACRLRKCYERGMVKCGSRRE gave a protein stability index of 2.27. For KSCQACRLRKCYETGMVKCGSRRE, the protein stability index was 1.96. In the case of KSCQACRLRKCYEMGMVKCGSRRE, the protein stability index is reported as 1.77. In the case of KSCQACRLRKCYEIGMVKCGSRRE, the protein stability index is reported as 1.67. Variant KSCQACRLRKCYEFGMVKCGSRRE has a protein stability index of 1.57. Variant KSCQACRLRKCYEEGMVKCGSRRE has a protein stability index of 1.9. For KSCQACRLRKCREVGMVKCGSRRE, the protein stability index was 1.9. In the case of KSCQACRLRKCTEVGMVKCGSRRE, the protein stability index is reported as 2.77. KSCQACRLRKCDEVGMVKCGSRRE showed a protein stability index of 1.83. KSCQACRLRKCMEVGMVKCGSRRE showed a protein stability index of 1.41. Variant KSCQACRLRKCSEVGMVKCGSRRE has a protein stability index of 2.29. With KSCQACRLRKCAEVGMVKCGSRRE the protein stability index was 2.9. With KSCQACRLRKCIEVGMVKCGSRRE the protein stability index was 1. In the case of KSCQACRLRKCCEVGMVKCGSRRE, the protein stability index is reported as 2.78. KSCQACRLRKCVEVGMVKCGSRRE gave a protein stability index of 2.19. In the case of KSCQACRLRKCYEVGMVKCGHRRE, the protein stability index is reported as 2.65. In the case of KSCQACRLRKCYEVGMVKCGERRE, the protein stability index is reported as 2.25. Variant KSCQACRLRKCYEVGMVKCGMRRE has a protein stability index of 2.13. KSCQACRLRKCYEVGMVKCGIRRE showed a protein stability index of 1.69. For KSCQACRLRKCYEVGMVKCGTRRE, the protein stability index was 2.31. For KSCQACRLRKCYEVGMVKCGGRRE, the protein stability index was 1.89. Variant KSCQACRLRKCYEVGMVKCGRRRE has a protein stability index of 2.09. For KSCQAARLRKCYEVGMVKCGSRRE, the protein stability index was 2.57. Variant KSCQAMRLRKCYEVGMVKCGSRRE has a protein stability index of 2.44. For KSCQANRLRKCYEVGMVKCGSRRE, the protein stability index was 2.94. With KSCQASRLRKCYEVGMVKCGSRRE the protein stability index was 2.25. With KSCQAWRLRKCYEVGMVKCGSRRE the protein stability index was 2. Variant KSCQAGRLRKCYEVGMVKCGSRRE has a protein stability index of 2.88. In the case of KSCQALRLRKCYEVGMVKCGSRRE, the protein stability index is reported as 2.48. In the case of KSCQAVRLRKCYEVGMVKCGSRRE, the protein stability index is reported as 2.42. For KSCQACRLRKCYEVGMVKCGSRRQ, the protein stability index was 1.88. KSCQACRLRKCYEVGMVKCGSRRW gave a protein stability index of 2.33. KSCQACRLRKCYEVGMVKCGSRRG showed a protein stability index of 2.92. Work on KSCQACRLRKCYEVGMVKCGSRRD yielded a protein stability index of 2.28. In the case of KSCQACRLRKCYEVGMVKCGSRRC, the protein stability index is reported as 2.28. In the case of KSCQACRLRKCYEVGMVKCGSRRL, the protein stability index is reported as 2.07. Work on KSCQACRLRKCYEVGMVKCGSRRM yielded a protein stability index of 1.67. With KSCQACRLRKCYEVGMVKCGSRRY the protein stability index was 1.42. In the case of KSCQACRLRKCYEVGMVKCGSRRR, the protein stability index is reported as 2.24.
